Source: the RNAGym collection of RNA variant scans (doi:10.1021/acssynbio.7b00057)

B1: Pistol ribozyme (parent)
chain: GGGUCGUUGUUCCAUAAUCGCGUGGAUAUGGCACGCAAGUUUCUACCGGGCACCGUAAAUGUCCGACUGGAGCCGUUCGGGCGGCUAUAAACAGACCUCAGGCCCGAAGCGUGGCGGCACCUGCCGCCGGUGGUAAAAAAGAUCGGAAGAGCACACGUCU

Variants of: B1
Experiment: aptazyme ON/OFF ratio, guanine; higher = stronger switching; co-transcriptional cleavage with and without guanine

Going from U7C U8A G9U U10C C12G C13U to U7C U8A G9C U10A U11G C12A, the “aptazyme ON/OFF ratio” value falls from 1.22 to 1.06.

Compared with U7C U8A G9C U10A U11G C12G, U7C U8A G9C U10A U11G C12U is lower in “aptazyme ON/OFF ratio” value: 1.31 for the first, 1.21 for the second.

Going from U7C U8A G9U U10A U11G C12U to U7C U8A G9U U10A U11G C12A, the “aptazyme ON/OFF ratio” value falls from 1.13 to 1.08.

Going from U7C U8A G9U U10A U11G C12G to U7C U8A G9U U10A U11C, the “aptazyme ON/OFF ratio” value falls from 1.14 to 1.05.

Compared with U7C U8A G9U U10A U11A, U7C U8A G9U U10A U11G is lower in “aptazyme ON/OFF ratio” value: 1.38 for the first, 1.36 for the second.

Going from U7C U8A G9C U11A C12U C13G to U7C U8A G9C U11A C12U C13A, the “aptazyme ON/OFF ratio” value rises from 1.1 to 1.16.

Going from U7C U8A G9C U11A C12U C13U to U7C U8A G9C U11C C12U C13G, the “aptazyme ON/OFF ratio” value falls from 1.2 to 1.06.

Compared with U7C U8A G9C U11C C12U C13A, U7C U8A G9C U11C C12U C13U is higher in “aptazyme ON/OFF ratio” value: 1.11 for the first, 1.12 for the second.

Going from U7C U8A G9C U11G C12U to U7C U8A G9C U11G C12A, the “aptazyme ON/OFF ratio” value falls from 1.29 to 1.06.

Compared with U7C U8A G9C U11G C12G, U7C U8A G9U C12A is lower in “aptazyme ON/OFF ratio” value: 1.2 for the first, 1.06 for the second.

First: U7C U8A G9U C12U
Second: U7C U8A G9U C12G
The “aptazyme ON/OFF ratio” value of the first is higher: 1.34 for the first, 1.16 for the second.

Compared with U7C U8A G9C U10G U11C C13A, U7C U8A G9C U10G U11C C13U is lower in “aptazyme ON/OFF ratio” value: 1.39 for the first, 1.09 for the second.

Compared with U7C U8A G9C U10G U11C C13G, U7C U8A G9U U10A C12U is higher in “aptazyme ON/OFF ratio” value: 1.05 for the first, 1.19 for the second.

Going from U7C U8A G9U U10A C12A to U7C U8A G9U U10A C12G, the “aptazyme ON/OFF ratio” value falls from 1.19 to 1.18.

First: U7C U8A G9U C12U C13G
Second: U7C U8A G9U C12U C13U
The “aptazyme ON/OFF ratio” value of the first is lower: 1.14 for the first, 1.29 for the second.

First: U7C U8A G9U C12U C13A
Second: U7C U8A G9C U10A U11G C12A C13A
The “aptazyme ON/OFF ratio” value of the first is lower: 1.09 for the first, 1.13 for the second.

Going from U7C U8A G9C U10A U11G C12A C13G to U7C U8A G9C U10A U11G C12A C13U, the “aptazyme ON/OFF ratio” value rises from 1.12 to 1.14.

U7C U8A G9C U10C U11A C12A and U7C U8A G9C U10C U11A C12G are the same in “aptazyme ON/OFF ratio” value: 1.03 for the first, 1.03 for the second.

Compared with U7C U8A G9C U10C U11A C12U, U7C U8A G9C U10G U11A C12U C13U is higher in “aptazyme ON/OFF ratio” value: 1.06 for the first, 1.14 for the second.

First: U7C U8A G9C U10G U11A C12U C13A
Second: U7C U8A G9C U10G U11A C12U C13G
The “aptazyme ON/OFF ratio” value of the first is higher: 1.16 for the first, 1.13 for the second.

First: U7C U8A G9C U11G C12A C13A
Second: U7C U8A G9C U11G C12A C13U
The “aptazyme ON/OFF ratio” value of the first is lower: 1.13 for the first, 1.15 for the second.

Compared with U7C U8A G9C U11G C12A C13G, U7C U8A G9C U10C U11C C12G C13A is lower in “aptazyme ON/OFF ratio” value: 1.15 for the first, 1.04 for the second.

U7C U8A G9C U10C U11C C12G C13U and U7C U8A G9C U10C U11C C12G C13G are the same in “aptazyme ON/OFF ratio” value: 1.04 for the first, 1.04 for the second.

First: U7C U8A G9U U10A C12A C13U
Second: U7C U8A G9U U10A C12A C13A
The “aptazyme ON/OFF ratio” value of the first is lower: 1.22 for the first, 1.29 for the second.

Going from U7C U8A G9U U10A C12A C13G to U7C U8A G9C U10G U11G C13A, the “aptazyme ON/OFF ratio” value falls from 1.16 to 1.13.

Going from U7C U8A G9C U10G U11G C13U to U7C U8A G9C U10G U11G C13G, the “aptazyme ON/OFF ratio” value falls from 1.14 to 1.11.

First: U7C U8A G9C U10C U11G C13A
Second: U7C U8A G9C U10C U11G C13U
The “aptazyme ON/OFF ratio” value of the first is lower: 1.1 for the first, 1.16 for the second.

First: U7C U8A G9C U10C U11G C13G
Second: U7C U8A G9C U10C C12U
The “aptazyme ON/OFF ratio” value of the first is lower: 1.06 for the first, 1.15 for the second.

Going from U7C U8A G9C U10C C12G to U7C U8A G9C U10C C12A, the “aptazyme ON/OFF ratio” value rises from 1.03 to 1.04.

Going from U7C U8A G9U U10C C12U C13U to U7C U8A G9U U10C C12U C13G, the “aptazyme ON/OFF ratio” value falls from 1.13 to 1.12.

Going from U7C U8A G9U U10C C12U C13A to U7C U8A G9C U10G C13G, the “aptazyme ON/OFF ratio” value falls from 1.12 to 1.11.

First: U7C U8A G9C U10G C13U
Second: U7C U8A G9C U10G C13A
The “aptazyme ON/OFF ratio” value of the first is higher: 1.35 for the first, 1.15 for the second.

Going from U7C U8A G9U U10A U11C C13G to U7C U8A G9U U10A U11C C13U, the “aptazyme ON/OFF ratio” value rises from 1.05 to 1.06.

First: U7C U8A G9U U10A U11C C13A
Second: U7C U8A G9U U10C U11C C12A
The “aptazyme ON/OFF ratio” value of the first is higher: 1.07 for the first, 1.06 for the second.

Compared with U7C U8A G9U U10C U11C C12G, U7C U8A G9C U11A C12A is higher in “aptazyme ON/OFF ratio” value: 1.03 for the first, 1.1 for the second.

Going from U7C U8A G9C U11A C12G to U7C U8A G9C U11A C12U, the “aptazyme ON/OFF ratio” value rises from 1.12 to 1.15.

U7C U8A G9C U10A U11C C12G C13G and U7C U8A G9C U10A U11C C12G C13A are the same in “aptazyme ON/OFF ratio” value: 1.29 for the first, 1.29 for the second.

Compared with U7C U8A G9C U10A U11C C12G C13U, U7C U8A G9C U10G U11A C12G is lower in “aptazyme ON/OFF ratio” value: 1.36 for the first, 1.32 for the second.

First: U7C U8A G9C U10G U11A C12U
Second: U7C U8A G9C U10G U11A C12A
The “aptazyme ON/OFF ratio” value of the first is lower: 1.08 for the first, 1.38 for the second.

Going from U7C U8A G9C U10C C12G C13A to U7C U8A G9C U10C C12G C13U, the “aptazyme ON/OFF ratio” value rises from 1.06 to 1.07.

Compared with U7C U8A G9C U10C C12G C13G, U7C U8A G9C U11A C12A C13U is higher in “aptazyme ON/OFF ratio” value: 1.07 for the first, 1.15 for the second.

Going from U7C U8A G9C U11A C12A C13G to U7C U8A G9C U11A C12A C13A, the “aptazyme ON/OFF ratio” value rises from 1.08 to 1.11.
